Biological target: T1, full length αE-cat R551A (human, UniProt P35221 1-906, R551A)
T1 construct: αE-catenin (CTNNA1), human, full length, M3-domain salt-bridge mutant R551A; also called GST-αE-catenin (human) R551A
T1 sequence (looked up): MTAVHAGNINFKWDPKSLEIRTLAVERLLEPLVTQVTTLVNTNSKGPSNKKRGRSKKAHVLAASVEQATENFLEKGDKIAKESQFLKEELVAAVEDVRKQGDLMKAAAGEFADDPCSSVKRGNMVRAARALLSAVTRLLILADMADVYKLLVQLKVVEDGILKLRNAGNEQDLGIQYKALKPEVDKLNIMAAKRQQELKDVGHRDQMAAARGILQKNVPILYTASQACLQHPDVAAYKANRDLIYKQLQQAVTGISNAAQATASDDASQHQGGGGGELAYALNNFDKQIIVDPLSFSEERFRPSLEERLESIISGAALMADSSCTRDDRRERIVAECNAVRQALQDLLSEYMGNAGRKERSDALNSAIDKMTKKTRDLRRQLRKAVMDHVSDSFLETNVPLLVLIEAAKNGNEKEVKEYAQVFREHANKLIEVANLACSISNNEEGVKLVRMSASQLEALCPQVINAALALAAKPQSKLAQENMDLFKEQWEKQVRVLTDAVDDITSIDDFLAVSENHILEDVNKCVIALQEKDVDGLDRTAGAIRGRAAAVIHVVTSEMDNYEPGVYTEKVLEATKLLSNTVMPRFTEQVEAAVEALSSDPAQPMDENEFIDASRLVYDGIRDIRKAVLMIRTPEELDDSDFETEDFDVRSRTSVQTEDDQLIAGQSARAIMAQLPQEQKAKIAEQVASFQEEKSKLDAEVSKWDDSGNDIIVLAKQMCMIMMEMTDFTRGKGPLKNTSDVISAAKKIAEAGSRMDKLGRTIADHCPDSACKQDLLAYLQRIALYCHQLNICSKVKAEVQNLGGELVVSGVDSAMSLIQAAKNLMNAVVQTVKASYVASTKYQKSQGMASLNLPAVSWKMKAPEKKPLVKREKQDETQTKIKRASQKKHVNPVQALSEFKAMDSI
Experiment: pull-down; GST-Afdn-CC-ABR (or GST control) pre-bound to glutathione resin, mixed with α-cat prey proteins, washed, eluted with free glutathione; interaction strength assessed by Coomassie staining
Conditions: both partners purified

- binding result: binds
B1: GST-Afadin-Coiled-coil α-cat binding region (Afadin-CC-ABR; amino acids 1391–1449) (domain or fragment, rat)
chain: MDLPLPPPPANQAAPQSAQVAAAERKKREEHQRWYEKEKARLEEERERKRREQERKLGQ
notes: cDNA from the Takai lab; also called GST-Afadin-CC-ABR; GST-Afdn-CC-ABR; not shown: GST, N-terminal, kept

Reference: doi:10.1101/2025.08.21.671625, “α-catenin phosphorylation is actomyosin-sensitive and required for epithelial barrier functions through Afadin” (bioRxiv, 2025)
